# Measured values as given in PMC10384999.
# Molecular target: T1, ArcR (Staphylococcus aureus NCTC8325 (?)) (UniProt Q2FUY1)
# T1 sequence: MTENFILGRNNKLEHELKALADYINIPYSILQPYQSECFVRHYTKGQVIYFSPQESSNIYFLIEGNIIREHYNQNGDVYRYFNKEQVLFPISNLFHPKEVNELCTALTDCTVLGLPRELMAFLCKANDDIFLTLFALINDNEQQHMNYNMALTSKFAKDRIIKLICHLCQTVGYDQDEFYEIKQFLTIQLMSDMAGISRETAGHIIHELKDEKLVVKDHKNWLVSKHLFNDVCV
# Assay: EMSA
# Conditions: 25 mM HEPES, 300 mM NaCl, 1 mM DTT, 10% glycerol, pH 7.8; 30 min at room temperature ([…]) or 37 °C ([…]
row,Sequence,binding
1,ACCTACCTTTCGTTAGTTAGGTTGTAAGCCATATGGTAATTGATAGTATTTTAATTTGCAATAGATTGTTGTTATAATTAAACGGAAATATTTGTAATTGCAACTTAATTTTCCTGTAACATAGTGTGATTAATTTTCAGTAGGGGGTTATAAAAATTGAAGGATAAGATTATTGATAACGCAATAACCTTATTTTCAGAGAAGGGGTATGACGGTACAACACTTGATGATATAGCT (double strand) [ica promoter (icaA) fragment],binds
2,AGCGCGTGTTGTTATGTCGCGAATGGTAATCTTTTCTAAATCTTTTTCTTGTAGTAATTTAGTGAACGCTTGTTTAATGGAGGACTTTGTCTTTCTAATTCGCCTATCTTCTTTCAAAAATAAATCAACCTCCTTGTGTTATTGAACAATGTGGGTGTATTTGTCTATTAATGAACGTATTGATGAACATTGTGTATTGTTTATTCCCACTTACATATTATAATAGACAACATGCGAAATATTCAACACATTGTCTAATAAGGAGGT (double strand) [tetA promoter fragment],no binding
3,TCAACTTTGACTAACCCTCGAAATTGAAATGCTTCCTTTCAAATTTTAAATAAAAGTTAAAAACATATTCTTAAAATAATCACTCATCATCACTCAGTAATTTATCAGTTGCTACATTAAATATACTAATATAAACGATTATAAATATTTGATATGTCTCAACTGCAATATTCTAAATTGACATATTGATTATTGTTTCCTCAAATCGTTTTAAAAAATAGAAGGATGATGAAAATGAAAACACGTATAGTCAGCTCAGTAACAACAACACTATTGCTAGGTT (double strand) [hla promoter fragment],binds
